According to patent US20220306748A1:

Legend:
[1] = biological target: CD3ε (CD3 epsilon) recombinant protein (UniProt P07766); assay: SPR kinetics, CD3ε as immobilised ligand; comparator panel at the right
[2] = biological target: human leukocyte antigen-G (HLA-G) recombinant protein (human) (UniProt P17693); assay: SPR kinetics, HLA-G as immobilised ligand; comparator panel at the right

**Q.** Which Kd [1] does the source give for Muromonab-CD3 (antibody) here?
**A.** Its Kd is 7.68 nM.

**Q.** Which Kd [2] does the source give for Anti-human HLA-G Antibody (87G) here?
**A.** Its Kd is 8.69 nM.
